Paper PMC3507513 (Molecular cell, 2010)

Assays:
[1] = target: T1, HET-S(1–227) (Podospora anserina), B2ACC7; assay: NMR titration; conditions: remark: other sources report otherwise
T1 chain: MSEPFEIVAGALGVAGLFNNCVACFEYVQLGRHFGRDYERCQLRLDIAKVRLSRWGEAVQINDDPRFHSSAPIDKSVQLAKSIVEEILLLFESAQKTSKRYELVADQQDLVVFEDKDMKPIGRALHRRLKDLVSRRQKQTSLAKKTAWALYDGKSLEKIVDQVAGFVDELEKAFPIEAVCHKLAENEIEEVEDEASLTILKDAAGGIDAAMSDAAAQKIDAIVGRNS

[2] = target: T1, HET-S(1–227) (Podospora anserina), …; assay: […]; conditions: remark: other sources report otherwise
NMR titration = target: the molecule itself; assay: NMR titration

B1: HET-S(1–227), B2ACC7 1-227 (domain or fragment)
chain: T1 chain
[1]
  Kd: 78 µM
[2]
  stoichiometry N: 2

B2: HET-s(1–227) (domain or fragment, Podospora anserina, UniProt Q03689 1-227, looked up)
chain: MSEPFGIVAGALNVAGLFNNCVDCFEYVQLGRPFGRDYERCQLRLDIAKARLSRWGEAVKINDDPRFHSDAPTDKSVQLAKSIVEEILLLFESAQKTSKRYELVADQQDLVVFEDKDMKPIGRALHRRLNDLVSRRQKQTSLAKKTAWALYDGKSLEKIVDQVARFVDELEKAFPIEAVCHKLAEIEIEEVEDEASLTILKDAAGGIDAAMSDAAAQKIDAIVGRNS
NMR titration
  Kd: 320 ± 37 µM
